According to patent publication US20210340249A1, “MUSCARINIC ACETYLCHOLINE RECEPTOR BINDING AGENTS AND USES THEREOF” (VIB VZW, priority 2013, published 2021):
Entries after “also recorded” stand apart in the source; their conditions may differ.

T1: human M2 muscarinic receptor (Homo sapiens, UniProt P08172, DEL233-374/N2D/N3D/N6D/N9D)
T1 construct: FLAG (N); 8xHis (C); made in house; host or cells: Sf9 insect cells, BestBac baculovirus system
T1 sequence (P08172 with tags, fused parts or gaps N2D/N3D/N6D/N9D/DEL233-374): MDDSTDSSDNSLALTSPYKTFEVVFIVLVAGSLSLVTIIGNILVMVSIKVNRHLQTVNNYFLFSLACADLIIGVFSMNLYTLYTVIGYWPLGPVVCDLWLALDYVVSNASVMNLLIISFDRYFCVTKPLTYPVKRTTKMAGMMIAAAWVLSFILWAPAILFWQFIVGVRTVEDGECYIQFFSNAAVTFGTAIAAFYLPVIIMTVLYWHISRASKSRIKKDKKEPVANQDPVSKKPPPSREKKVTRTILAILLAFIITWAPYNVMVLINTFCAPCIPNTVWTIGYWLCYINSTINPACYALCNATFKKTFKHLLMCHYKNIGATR

B1: Nb9-1: Nanobody SEQ ID NO:2; M2 Gi mimetic (protein, listed as Lama glama)
VHH: QVQLQESGGGLVQAGGSLRLSCAASGHTFSSARMYWVRQAPGKEREFVAAISRSGFTYSADSVKGRFTISRDIANNTVYLQMNSLQPEDTAIYTCYAAYLDEFYNDYTHYWGLGTQVTVSS
B2: Nb9-8: Nanobody SEQ ID NO:1; M2 Gi mimetic, active-state stabilizing, binds intracellular surface of M2 receptor (protein, listed as Lama glama)
VHH: QVQLQESGGGLVQAGDSLRLSCAASGFDFDNFDDYAIGWFRQAPGQEREGVSCIDPSDGSTIYADSAKGRFTISSDNAENTVYLQMNSLKPEDTAVYVCSAWTLFHSDEYWGQGTQVTVSS
B3: Nb9-20: Nanobody SEQ ID NO:11; M2 Gi mimetic (protein, listed as Lama glama)
VHH: QVQLQESGGGLVQPEGSLTLACDTSGFTMNYYAIAWFRQAPEKEREGLATISSIDGRTYYADSVKGRFTISRDSAKNMVYLQMNNLRPEDTAVYYCSAGPDYSDYGDESEYWGQGTQVTVSS
B4: clone B4: Nanobody SEQ ID NO:16; functional extracellular M2 nanobody ligand (protein, listed as Lama glama)
VHH: QVQLQESGGGLVQAGGSLRLSCAASGRTFSNYAMSWFRQAPGKERGLVATIYRSGEGTYYLPSAKGRFTVSRDNAKNTAYLQMNSLKAEDTAVYYCAVMSRGTWSMWGQGTQVTVSS

Target: T1, human M2 muscarinic receptor
Test: M2 receptor radioligand binding assay (3H N-methyl scopolamine, receptor reconstituted into HDL particles)
Conditions: for enhancement of M2 receptor affinity for the agonist iperoxo: competition binding assay, iperoxo vs 3H N-methyl scopolamine, compared with G protein Gi
Excerpt: M2 muscarinic receptor expression and purification. The human M2 muscarinic receptor gene was modified to remove glycosylation sites, and to add an amino-terminal FLAG tag and a carboxy-terminal 8×His tag. In addition, residues 233-374 of intracellular loop 3 were deleted. […] Human M2 muscarinic receptor bearing an amino-terminal FLAG epitope tag and carboxy-terminal 8×His tag was expressed in Sf9 cells using the BestBac baculovirus system (Expression Systems; Davis, Calif.). Cells were infected at a density of 4×10^6 cells/mL, then incubated for two days at 27° C. Receptor was extracted and purified in the manner described previously for the M3 muscarinic receptor (Kruse et al., 2012). Briefly, receptor was first purified by Ni-NTA chromatography, FLAG affinity chromatography, then size exclusion chromatography. 1 μM atropine was included in all buffers. Receptor was then labeled with a 5-fold molar excess of biotin-NHS ester (Sigma-Aldrich; St. Louis, Mo.) in buffer containing 25 mM HEPES pH 7.2. Following a 30 minute incubation at room temperature and a 30 minute incubation on ice, unreacted label was quenched with 50 mM Tris pH 8. Directly labeled samples with fluorophore-NHS esters were prepared similarly. Receptor was then desalted into buffer containing either 10 μM tiotropium, 10 μM iperoxo, or buffer containing no ligand. Receptor eluted in buffer containing no ligand was treated with 50 μM iperoxo mustard (derivative of iperoxo that allows covalent binding to M2 receptor) for 20 minutes at room temperature. Samples were then concentrated, aliquoted, and flash frozen with 20% (v/v) glycerol.
M2 receptor radioligand binding assays. M2 receptor was expressed and purified, as described above. Receptor was then reconstituted into HDL particles consisting of apolipoprotein A1 and a 3:2 (mol:mol) mixture of the lipids POPC:POPG (1-palmitoyl-2-oleoyl-sn-glycero-3-phosphocholine: 1-palmitoyl-2-oleoyl-sn-glycero-3-phosphocholine and 1-hexadecanoyl-2-(9Z-octadecenoyl)-sn-glycero-3-phospho-(r-rac-glycerol), respectively, Avanti Polar Lipids). Binding reactions contained 50 fmol functional receptor, 0.6 nM 3H N-methyl scopolamine (NMS), 100 mM NaCl, 20 mM HEPES pH 7.5, 0.1% BSA, and ligands and nanobodies as indicated. Single point allosteric effects of nanobodies were measured in the presence of 10 nM iperoxo. Concentration-dependent effects of nanobodies were measured in the presence of 10 nM iperoxo. All reactions were 500 μL in volume. Reactions were mixed and then incubated for two hours. Samples were then filtered on a 48-well harvester (Brandel) onto a filter which had been pretreated with 0.1% polyethylenimine. All measurements were taken by liquid scintillation counting, and experiments were performed at least in triplicate.
To determine whether the Nanobody variants that specifically stain agonist-bound M2 receptor are able to stabilize the M2 receptor active state, a binding assay was performed. Due to the allosteric properties of GPCRs, molecules that stabilize the active conformation of a receptor also increase agonist affinity. Several conformationally specific binders were isolated and were tested for their ability to induce an increase in the affinity of the non-covalent agonist iperoxo.

| Molecule | enhancement of M2 receptor affinity for the agonist iperoxo | EC50 (concentration-dependent effect of nanobody in the presence of 10 nM iperoxo, 0.6 nM 3H N-methyl scopolamine, read-out: EC50 of nanobody effect on agonist ability to displace a radioactive probe) [nM] | dose-dependent effect on agonist ability to displace a radioactive probe (in the presence of 10 nM iperoxo, 3H N-methyl scopolamine) | effect on binding of the radioligand N-methylscopolamine (allosteric binding properties) (single point, with and without agonist (10 nM iperoxo)) |
| --- | --- | --- | --- | --- |
| B1 | confirmed to enhance agonist affinity |  |  |  |
| B2 | confirmed to enhance agonist affinity; also recorded: enhanced the affinity of the M2 receptor for iperoxo to almost the same extent as that observed in the presence of the heterotrimeric G protein Gi; also recorded: substantial enhancement of iperoxo affinity | ~100 | dose-dependent effect |  |
| B3 | confirmed to enhance agonist affinity |  |  |  |
| B4 |  |  |  | decrease in the binding of the radioligand N-methylscopolamine only in the presence of agonist |
